Test results taken from patent US12018066 (TRIAD NATIONAL SECURITY, dated 2024).
Changes are numbered by the printed parent chain. Several values for one entry are separate records, joined by “and”; a condition that tells them apart may be missing. Equal entries are not always repeated.

B1: H01 IgG1 (antibody, V domains shown)
VH: QVTLKESGPVLVKPTETLTLTCTVSGFSLSNARMGVSWIRQPPGKALEWLAHIFSNGEKSYSTSLKSRLTISKDTSKSQVVLTMTNMDPVDTATYYCARTLDYYDSSGYLVGGAFDIWGQGTMVTVSS
VL: QPGLTQPPSVSLAPGQTARITCGGNNIGSKSVHWYQQKPGQAPVLVVYDDSDRPSGIPERFSGSNAGNTATLTISRVEAGDEADYYCQVWDSRSDQYVFGTRTKLTVL
notes: also called H1
B2: G07 IgG1 (antibody, V domains shown)
VH: QVQLVQSGAEVKKPGESLKISCKGSGYSFTSYWIGWVRQMPGKGLEWMGIIYPGDSDIRYSPSFQGQVTISADKSFSSAYLQWSSLKASDTAMYYCARLGATGAFDIWGQGTTVTVSS
VL: QSVLIQPPSASGTPGQRVTISCSGSNSNFGSNSVSWYQQRPGTAPKLLIEGNNQRPSGVPERFSGSKSGTSASLAISGLQSEDEAEYSCASWDDSLNAFVFGPGTKLTVL
B3: E01 IgG1 (antibody, V domains shown)
VH: QVQLQQWGAGLLKPSETLSLKCAVYGGSFSGYYWGWIRQSTGKGLEWIGEINRSGSTNYNPSLKSRVTISVDTSKNQFSLKLSSVTAADTAVYYCARGGARYYYGSGSYRSTPRPYYFDYWGQGTLVTVSS
VL: SYELTQPPSVSVAPGETARITCGGDNIGRRHVHWYQQKPGQAPVLVIYDDSDRPSGIPDRFSGSNSGNTATLTIGRVEAGDEADYYCQVWGSSNDPHVFGTGTKLTVL
notes: also called E1
B4: B04 IgG1 (antibody, V domains shown)
VH: QVQLVESGAEVKKPGASVKVSCKASGYTFTRYYMHWVRQAPGQGLEWMGIINPSGGTTSYAQKFQGRVTMTRDTSTSTVYMELSSLRSEDTAVYYCARSFGELTSFDYWGQGTLVTVSS
VL: SYVLTQPPSVSVAPGKTARITCGGNNIGIRSVHWYQQKPGQAPVLVIYYDSDRPSGIPERFSGSKSGNTATLTISRVEAGDEADYYCQVWDSSSDHPVFGGGTKLTVL
B5: E08 IgG1 (antibody, V domains shown)
VH: QVQLVQSGAEVKKPGSSVKVSCKASGGTFSSYAISWVRQAPGQGLEWMGGIIPIFGTANYAQKFQGRVTITADESTSTAYMELSSLRSEDTAVYYCARASGRWLQFWHYYGMDVWGQGTTVTVSS
VL: B4 VL with I29W, R30K, I47V, Y49D, K65N, H96L, P97V
B6: F07 minibody (scFv-Fc) (Fc fusion)
chain: SYVLTQPPSVSVAPGQTARITCGGNNIGSKSVHWYQQKPGQAPVLVVYDDSDRPSGIPERFSGSNSGNTATLIISRVEAGDEADYYCQVWDSSSVHYVFGTGTKLTVLSGGSTITSYNVYYTKLSSSGTQVQLVQSGAEVKKPGSSVRVSCKVSGYTFTGYYMHWVRQAPGQGLEWMGIINPSGGSTSYAQKFQGRVTMTRDTSTSTVYMELSSLRSEDTAVYYCARVRVGASDAFDIWGQGTMVTVSS
B7: E01 minibody (scFv-Fc) (Fc fusion)
chain: SYELTQPPSVSVAPGETARITCGGDNIGRRHVHWYQQKPGQAPVLVIYDDSDRPSGIPDRFSGSNSGNTATLTIGRVEAGDEADYYCQVWGSSNDPHVFGTGTKLTVLSGGSTITSNNVYYTKLSSSGTQVQLQQWGAGLLKPSETLSLKCAVYGGSFSGYYWGWIRQSTGKGLEWIGEINRSGSTNYNPSLKSRVTISVDTSKNQFSLKLSSVTAADTAVYYCARGGARYYYGSGSYRSTPRPYYFDYWGQGTLVTVSS
notes: also called E1
B8: S01 minibody (scFv-Fc) (Fc fusion)
chain: EIVMTQSPSSLSASVGDSVTITCQASQDISNYLNWYQQKPGKAPKLLIYDASNLETGVPSRFSGGGSGTDFTLTITSLQPEDIATYYCQQYDNFPPTFGPGTKVDIKSGGSTITSYNVYYTKLSSSDTQVQLVESGGGLVKPGGSLRLSCAASGFTVGSNYMSWVRQAPGKGLEWVSVIYSGGSTYYADSVKGRFTISRDNSKNTLYLQMNSLRAEDTAVYYCARGSSGAWYFDLWGRGTLVTVSS
notes: also called 501

Biological target: T1, SARS-CoV-2 spike protein receptor binding domain (RBD2) (SARS-CoV-2, UniProt P0DTC2 319-537)
Assay: SPR sandwich binning, ligand CR3022

First: B1
Second: B2
The “normalized analyte binding to RBD2 held by the immobilized ligand” value (shortened to “normalized analyte binding to RBD2 held”) of the first is lower: -0.05 for the first, 1.56 for the second.

Going from B3 to B4, the “normalized analyte binding to RBD2 held” value falls from 2.39 to 2.22.

B5 was tested, and the “normalized analyte binding to RBD2 held” value was -0.08.

Biological target: T1, SARS-CoV-2 spike protein receptor …
Assay: SPR sandwich binning, ligand B04

Going from B1 to B2, the “normalized analyte binding to RBD2 held” value falls from 0.77 to -0.03.

Compared with B3, B4 is lower in “normalized analyte binding to RBD2 held” value: -0.09 for the first, -0.11 for the second.

With B5 the “normalized analyte binding to RBD2 held” value was 2.12.

Biological target: T1, SARS-CoV-2 spike protein receptor …
Assay: SPR, immobilized antibody, RBD injected, 1:1 fit

Going from B1 to B2, the Kd falls from 800 nM to 320 nM (2.5-fold). The second binds more tightly here.

B3 and B6 are within 1.5-fold of each other in Kd: 90 nM for the first, 61.5 nM for the second.

Compared with B4, B5 is 7.8-fold lower in Kd: 210 nM for the first, 27 nM for the second. The second binds more tightly here.

Work on B7 yielded a Kd of 21.5 nM.

Biological target: T1, SARS-CoV-2 spike protein receptor …
Assay: SPR sandwich binning, ligand G07

First: B1
Second: B2
The “normalized analyte binding to RBD2 held” value of the first is higher: 1.28 for the first, -0.05 for the second.

Compared with B3, B4 is lower in “normalized analyte binding to RBD2 held” value: 2.43 for the first, -0.07 for the second.

In the case of B5, the “normalized analyte binding to RBD2 held” value is reported as 2.62.

Biological target: T1, SARS-CoV-2 spike protein receptor …
Assay: SPR sandwich binning, ligand S01

Compared with B1, B3 is higher in “normalized analyte binding to RBD2 held” value: -0.11 for the first, 0.03 for the second.

Compared with B4, B5 is higher in “normalized analyte binding to RBD2 held” value: -0.59 for the first, 1.85 for the second.

Biological target: T1, SARS-CoV-2 spike protein receptor …
Assay: SPR

First: B1
Second: B2
The Kd of the first is 2.5-fold higher: 800 nM for the first, 320 nM for the second.

First: B3
Second: B8
The Kd of the first is 250-fold lower: 90 nM for the first, 22700 nM for the second. The first binds more tightly here.

First: B6
Second: B4
The Kd of the first is 3.4-fold lower: 61.5 nM for the first, 210 nM for the second. The first binds more tightly here.

B5 and B7 are within 1.5-fold of each other in Kd: 27 nM for the first, 21.5 nM for the second.

Biological target: T1, SARS-CoV-2 spike protein receptor …
Assay: SPR sandwich binning, ligand F07

Compared with B1, B2 is higher in “normalized analyte binding to RBD2 held” value: 0.03 for the first, 0.08 for the second.

First: B3
Second: B4
The “normalized analyte binding to RBD2 held” value of the first is higher: 0.62 for the first, 0.05 for the second.

B5 was tested, and the “normalized analyte binding to RBD2 held” value was 1.32.

Biological target: SARS-CoV-2 spike protein on whole SARS-CoV-2 virus (SARS-CoV-2, UniProt P0DTC2 14-1273)
Assay: cell-based or functional assay

Going from B1 to B3, the “NT50 (nM), half neutralization titer” value falls from 69.6 nM to 6.4 nM (11-fold).

B4 and B5 are within 1.5-fold of each other in “NT50 (nM), half neutralization titer” value: 56.7 nM for the first, 52.9 nM for the second.

Compared with B1, B3 is higher in “Nmax (%), neutralization maximum” value: 87.7% for the first, 104% for the second.

Compared with B4, B5 is higher in “Nmax (%), neutralization maximum” value: 53.3% for the first, 70.4% for the second.

Biological target: T2, human ACE2 receptor on HEK cells (Human ACE2 293 cell line) (human, UniProt Q9BYF1 18-805)
T2 construct: whole, on cells; also called HEK-ACE2; ACE2 293 cells
T2 sequence (Q9BYF1 18-805): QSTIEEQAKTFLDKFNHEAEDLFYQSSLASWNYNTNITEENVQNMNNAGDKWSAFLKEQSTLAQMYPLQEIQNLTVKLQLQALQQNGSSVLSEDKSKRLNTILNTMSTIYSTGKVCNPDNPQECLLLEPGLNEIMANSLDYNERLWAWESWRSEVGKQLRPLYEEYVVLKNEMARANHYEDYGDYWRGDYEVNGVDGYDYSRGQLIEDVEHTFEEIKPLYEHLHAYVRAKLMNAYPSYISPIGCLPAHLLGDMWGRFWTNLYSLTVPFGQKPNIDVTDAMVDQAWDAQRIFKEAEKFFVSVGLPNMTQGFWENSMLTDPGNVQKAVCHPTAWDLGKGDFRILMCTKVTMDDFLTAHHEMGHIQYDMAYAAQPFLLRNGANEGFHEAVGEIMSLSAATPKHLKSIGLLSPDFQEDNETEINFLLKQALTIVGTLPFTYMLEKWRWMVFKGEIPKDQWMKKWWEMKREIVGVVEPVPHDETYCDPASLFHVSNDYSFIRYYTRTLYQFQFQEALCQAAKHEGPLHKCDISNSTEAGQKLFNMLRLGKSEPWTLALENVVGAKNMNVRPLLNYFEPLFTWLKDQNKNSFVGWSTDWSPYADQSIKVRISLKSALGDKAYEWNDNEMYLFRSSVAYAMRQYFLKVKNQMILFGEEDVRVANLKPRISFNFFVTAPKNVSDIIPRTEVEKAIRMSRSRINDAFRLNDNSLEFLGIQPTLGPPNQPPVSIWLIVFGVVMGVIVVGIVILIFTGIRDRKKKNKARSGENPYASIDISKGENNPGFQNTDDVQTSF
Assay: fluorescence microscopy, PE-labelled IgG on HEK-ACE2 cells without RBD2-sfGFP

B2: no binding (tested: 1 ug/mL).
B4: no binding (tested: 1 ug/mL).

Biological target: T1, SARS-CoV-2 spike protein receptor …
Assay: SPR sandwich binning, ligand NN54

Compared with B2, B3 is higher in “normalized analyte binding to RBD2 held” value: 1.73 for the first, 2.78 for the second.

In the case of B4, the “normalized analyte binding to RBD2 held” value is reported as 2.5.

Biological target: T1, SARS-CoV-2 spike protein receptor …
Assay: SPR sandwich binning, ligand Anti-His

Compared with B1, B2 is lower in “normalized analyte binding to RBD2 held” value: 1.75 for the first, 0.92 for the second.

First: B3
Second: B4
The “normalized analyte binding to RBD2 held” value of the first is higher: 2 for the first, 1.68 for the second.

For B5, the “normalized analyte binding to RBD2 held” value was 1.81.

Biological target: T1, SARS-CoV-2 spike protein receptor …
Assay: SPR sandwich binning, ligand H01

First: B1
Second: B2
The “normalized analyte binding to RBD2 held” value of the first is lower: -0.03 for the first, 0.94 for the second.

First: B3
Second: B4
The “normalized analyte binding to RBD2 held” value of the first is higher: 2.35 for the first, 0.71 for the second.

B5 was tested, and the “normalized analyte binding to RBD2 held” value was 0.13.

Biological target: T1, SARS-CoV-2 spike protein receptor …
Assay: SPR sandwich binning, ligand E08

Compared with B1, B2 is higher in “normalized analyte binding to RBD2 held” value: -0.03 for the first, 1.86 for the second.

Going from B3 to B4, the “normalized analyte binding to RBD2 held” value falls from 2.33 to 2.24.

B5 was tested, and the “normalized analyte binding to RBD2 held” value was -0.09.

Biological target: T1, SARS-CoV-2 spike protein receptor …
Assay: not given

First: B1
Second: B5
The Kd of the first is 28-fold higher: 721 nM for the first, 26 nM for the second.

Biological target: T1, SARS-CoV-2 spike protein receptor …
Assay: SPR, IgG

First: B2
Second: B3
The Kd of the first is 42-fold higher: 2000 nM for the first, 48 nM for the second.

For B4, the Kd was 100 nM and 300 nM.

Biological target: T1, SARS-CoV-2 spike protein receptor …
Assay: not given
Remark: another data set of the same source

B4 gave a Kd of 208 nM.

Biological target: T1, SARS-CoV-2 spike protein receptor …
Assay: not given
Remark: another data set of the same source

Compared with B2, B3 is 2.7-fold lower in Kd: 246 nM for the first, 90 nM for the second.

Biological target: T1, SARS-CoV-2 spike protein receptor …
Assay: SPR sandwich binning, ligand H05

Going from B1 to B2, the “normalized analyte binding to RBD2 held” value rises from -0.05 to 1.03.

First: B3
Second: B4
The “normalized analyte binding to RBD2 held” value of the first is higher: 2.18 for the first, 1.87 for the second.

B5 was tested, and the “normalized analyte binding to RBD2 held” value was -0.11.

Biological target: T1, SARS-CoV-2 spike protein receptor …
Assay: SPR sandwich binning, ligand E01

Compared with B1, B2 is higher in “normalized analyte binding to RBD2 held” value: 0.41 for the first, 1.57 for the second.

Going from B3 to B4, the “normalized analyte binding to RBD2 held” value falls from -0.07 to -0.15.

For B5, the “normalized analyte binding to RBD2 held” value was 2.15.

Biological target: SARS-CoV spike protein receptor binding domain (RBD1) (SARS-CoV, UniProt P59594 306-527)
Assay: ELISA, minibodies (FIG. 6)

B8: no binding.
B6: no binding.
B7: no binding.
